# Reference: publication PMC8266564
# T1: GFP-dRNH1 (catalytically inactive RNase H1) (Homo sapiens, UniProt O60930 28-286, D210N)
# T1 sequence: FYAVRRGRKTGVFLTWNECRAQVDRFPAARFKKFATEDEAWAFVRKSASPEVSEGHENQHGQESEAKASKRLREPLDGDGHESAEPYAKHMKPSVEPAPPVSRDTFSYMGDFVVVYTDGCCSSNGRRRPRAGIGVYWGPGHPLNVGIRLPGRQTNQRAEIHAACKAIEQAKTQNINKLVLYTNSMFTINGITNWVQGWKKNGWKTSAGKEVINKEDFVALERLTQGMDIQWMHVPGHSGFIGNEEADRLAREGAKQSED
# B1: 60-bp RNA-DNA hybrid (RNA60/DNA60) (DNA:RNA)
# RNA: GUUGUAACGACGGCCAGUGCCAAGUUCGGAUCGACGCUCGACUCUAGAGGAUCCCGGUAC
# DNA: GTACCGGGATCCTCTAGAGTCGAGCGTCGATCCGAACTTGGCACTGGCCGTCGTTACAAC
# Biological target: T1, GFP-dRNH1 (catalytically inactive RNase …)
# Experiment: EMSA
binder,measurement,value
B1,binding result,binds
